The record followed here is IntAct's records for PubMed 9461438.

To fix the notation:
B1: WD repeat-containing protein slp1 (Schizosaccharomyces pombe (strain ATCC 38366 / 972)), P78972 (parent)
chain: MEIAGNSSTISPTFSTPTKKRNLVFPNSPITPLHQQALLGRNGRSSKRCSPKSSFIRNSPKIDVVNTDWSIPLCGSPRNKSRPASRSDRFIPSRPNTANAFVNSISSDVPFDYSESVAEACGFDLNTRVLAFKLDAPEAKKPVDLRTQHNRPQRPVVTPAKRRFNTTPERVLDAPGIIDDYYLNLLDWSNLNVVAVALERNVYVWNADSGSVSALAETDESTYVASVKWSHDGSFLSVGLGNGLVDIYDVESQTKLRTMAGHQARVGCLSWNRHVLSSGSRSGAIHHHDVRIANHQIGTLQGHSSEVCGLAWRSDGLQLASGGNDNVVQIWDARSSIPKFTKTNHNAAVKAVAWCPWQSNLLATGGGTMDKQIHFWNAATGARVNTVDAGSQVTSLIWSPHSKEIMSTHGFPDNNLSIWSYSSSGLTKQVDIPAHDTRVLYSALSPDGRILSTAASDENLKFWRVYDGDHVKRPIPITKTPSSSITIR
partner: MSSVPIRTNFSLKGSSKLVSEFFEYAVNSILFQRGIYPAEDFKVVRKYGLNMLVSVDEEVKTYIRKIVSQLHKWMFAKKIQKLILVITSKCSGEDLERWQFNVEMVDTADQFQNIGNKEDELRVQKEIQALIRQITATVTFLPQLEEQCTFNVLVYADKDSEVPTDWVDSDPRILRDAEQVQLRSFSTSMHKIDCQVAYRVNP

The variants in the experiment derive from B1. Particulars: with mad2_schpo mad2, O14417.
With A131P;F132Y, the “effect of a mutation on the interaction” value is “disrupting interaction”.
